The record followed here is PMC4329988.

In the assay the target is phosphatidyl inositol 5-phosphate 4-kinase 2β subunit (PI5P4K2β), C-terminal 3xFLAG and two 6xHis tags (chicken (endogenous in DT40)). As to the kind of experiment: affinity purification with mass spectrometry; SILAC-iPAC: lysates of JPR3 cells (tagged PI5P4K2β) and tag-less wild-type DT40 cells, differentially SILAC labelled (K6R6 or K0R0, reciprocal labellings), mixed 1:1; captured in parallel on EZview ANTI-FLAG M2 Affinity Gel and TALON Metal Affinity Resin for 1 h; lysis buffer 1x PBS pH 7.4, 1% Triton X-100; eluted with 3xFLAG peptide or 150 mM imidazole; LC-MS/MS, MaxQuant ratios.

B1: phosphatidyl inositol 5-phosphate 4-kinase 2α subunit (PI5P4K2α) (natural protein)
chain: MAAPGTVASVMASKTKTKKKHFVVQKVKLFRASDPLLSVLMWGVNHSINELSHVQIPVMLMPDDFKAYSKIKVDNHLFNKENMPSHFKFKEYCPMVFRNLRERFGIDDQDFQNSLTRSAPLANDSQARSGARFHTSYDKRYIIKTITSEDVAEMHNILKKYHQFIVECHGNTLLPQFLGMYRLTVDGVEIYMIVTRNVFSHRLSVYRKYDLKGSTVAREASDKEKAKELPTFKDNDFINDGQKIHIDENNKRMFLEKLKKDVEFLAQLKLMDYSLLVGIHDVERAEQEEVECEENDGEDEGESDGTHPIGTPPDSPGNTLNSSLPLAPGEFDPAIDVYGIKSHESAPRKEVYFMAIIDILTHYDAKKKAAHAAKTVKHGAGAEISTVNPEQYSKRFLDFIANILT
Take B1: the ratio of PI5P4K2β:PI5P4K2α in the pull-down is 1.28.
